Starred links: 1 amine or outer side, 2 acyl side, 3 side chain; linkers in the order of their positions; H or OH if unused. Positions of bridges follow the written chain, without caps; N, C: chain ends. *: point of attachment. C20 diacid = O=C(O)CCCCCCCCCCCCCCCCCCC(=O)*; γGlu = O=C(O)[C@H](CCC(=O)[*:2])N[*:1]
T1: human calcitonin (a) receptor (human, UniProt P30988 25-474)
T1 sequence (looked up): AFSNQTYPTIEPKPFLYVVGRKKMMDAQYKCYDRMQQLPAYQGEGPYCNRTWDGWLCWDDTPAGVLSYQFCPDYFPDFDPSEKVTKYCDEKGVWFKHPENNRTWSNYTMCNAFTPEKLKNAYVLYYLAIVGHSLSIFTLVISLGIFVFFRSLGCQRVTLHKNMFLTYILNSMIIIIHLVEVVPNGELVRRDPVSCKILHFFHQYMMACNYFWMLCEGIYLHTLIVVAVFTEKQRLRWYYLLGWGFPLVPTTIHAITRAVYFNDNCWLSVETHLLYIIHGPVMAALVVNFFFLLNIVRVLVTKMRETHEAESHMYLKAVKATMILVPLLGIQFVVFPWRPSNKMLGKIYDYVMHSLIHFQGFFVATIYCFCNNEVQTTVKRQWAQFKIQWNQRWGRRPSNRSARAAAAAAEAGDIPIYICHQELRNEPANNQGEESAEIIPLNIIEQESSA

T2: human amylin 3(a) receptor (human calcitonin receptor + RAMP-3) (human, UniProt P30988 25-474; O60896 24-148)
T2 sequence (looked up) 1: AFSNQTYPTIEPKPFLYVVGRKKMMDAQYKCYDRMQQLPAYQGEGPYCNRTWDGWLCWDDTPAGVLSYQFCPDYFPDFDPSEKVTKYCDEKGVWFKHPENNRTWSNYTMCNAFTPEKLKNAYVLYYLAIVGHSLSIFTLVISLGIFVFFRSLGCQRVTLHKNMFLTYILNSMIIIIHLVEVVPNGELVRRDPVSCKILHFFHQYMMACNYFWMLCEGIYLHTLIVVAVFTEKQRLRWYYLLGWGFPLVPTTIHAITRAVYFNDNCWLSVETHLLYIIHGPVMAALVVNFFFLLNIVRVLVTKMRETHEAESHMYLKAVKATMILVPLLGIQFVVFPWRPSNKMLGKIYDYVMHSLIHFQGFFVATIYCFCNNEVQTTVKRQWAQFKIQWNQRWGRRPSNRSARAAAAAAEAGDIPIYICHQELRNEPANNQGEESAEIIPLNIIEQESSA
T2 sequence (looked up) 2: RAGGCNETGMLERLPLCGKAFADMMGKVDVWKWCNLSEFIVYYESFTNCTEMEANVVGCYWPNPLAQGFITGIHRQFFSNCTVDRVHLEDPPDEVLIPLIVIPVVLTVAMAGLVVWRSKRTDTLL


What was measured:
[1] = molecular target: T1, human calcitonin (a) receptor; experiment: cell-based or functional assay
[2] = molecular target: T2, human amylin 3(a) receptor (human …); experiment: cell-based or functional assay

Binder | CTa receptor human EC50 [1] | Amylin receptor human EC50 [2]
{C20 diacid-γGlu}-CNTATCATQRLAEFLVHSSNNFGPILPPTNVGSNTP-NH2 (disulfide 1-6; SMILES CC[C@H](C)[C@H](NC(=O)[C@@H]1CCCN1C(=O)CNC(=O)[C@H](Cc1ccccc1)NC(=O)[C@H](CC(N)=O)NC(=O)[C@H](CC(N)=O)NC(=O)[C@H](CO)NC(=O)[C@H](CO)NC(=O)[C@H](Cc1c[nH]cn1)NC(=O)[C@@H](NC(=O)[C@H](CC(C)C)NC(=O)[C@H](Cc1ccccc1)NC(=O)[C@H](CCC(=O)O)NC(=O)[C@H](C)NC(=O)[C@H](CC(C)C)NC(=O)[C@H](CCCNC(=N)N)NC(=O)[C@H](CCC(N)=O)NC(=O)[C@@H](NC(=O)[C@H](C)NC(=O)[C@@H]1CSSC[C@H](NC(=O)CC[C@H](NC(=O)CCCCCCCCCCCCCCCCCCC(=O)O)C(=O)O)C(=O)N[C@@H](CC(N)=O)C(=O)N[C@@H]([C@@H](C)O)C(=O)N[C@@H](C)C(=O)N[C@@H]([C@@H](C)O)C(=O)N1)[C@@H](C)O)C(C)C)C(=O)N[C@@H](CC(C)C)C(=O)N1CCC[C@H]1C(=O)N1CCC[C@H]1C(=O)N[C@H](C(=O)N[C@@H](CC(N)=O)C(=O)N[C@H](C(=O)NCC(=O)N[C@@H](CO)C(=O)N[C@@H](CC(N)=O)C(=O)N[C@H](C(=O)N1CCC[C@H]1C(N)=O)[C@@H](C)O)C(C)C)[C@@H](C)O) [N-alpha-[(S)-4-Carboxy-4-(19-carboxynonadecanoylamino)butyryl]-[des1,Glu14,Pro37]-pramlintide] | 0.0735 nM | 0.088 nM
{C20 diacid-γGlu}-SCNTATCATQRLAEFLHHSSNNFGPILPPTNVGSHTY-NH2 (disulfide 2-7; SMILES CC[C@H](C)[C@H](NC(=O)[C@@H]1CCCN1C(=O)CNC(=O)[C@H](Cc1ccccc1)NC(=O)[C@H](CC(N)=O)NC(=O)[C@H](CC(N)=O)NC(=O)[C@H](CO)NC(=O)[C@H](CO)NC(=O)[C@H](Cc1c[nH]cn1)NC(=O)[C@H](Cc1c[nH]cn1)NC(=O)[C@H](CC(C)C)NC(=O)[C@H](Cc1ccccc1)NC(=O)[C@H](CCC(=O)O)NC(=O)[C@H](C)NC(=O)[C@H](CC(C)C)NC(=O)[C@H](CCCNC(=N)N)NC(=O)[C@H](CCC(N)=O)NC(=O)[C@@H](NC(=O)[C@H](C)NC(=O)[C@@H]1CSSC[C@H](NC(=O)[C@H](CO)NC(=O)CC[C@H](NC(=O)CCCCCCCCCCCCCCCCCCC(=O)O)C(=O)O)C(=O)N[C@@H](CC(N)=O)C(=O)N[C@@H]([C@@H](C)O)C(=O)N[C@@H](C)C(=O)N[C@@H]([C@@H](C)O)C(=O)N1)[C@@H](C)O)C(=O)N[C@@H](CC(C)C)C(=O)N1CCC[C@H]1C(=O)N1CCC[C@H]1C(=O)N[C@H](C(=O)N[C@@H](CC(N)=O)C(=O)N[C@H](C(=O)NCC(=O)N[C@@H](CO)C(=O)N[C@@H](Cc1c[nH]cn1)C(=O)N[C@H](C(=O)N[C@@H](Cc1ccc(O)cc1)C(N)=O)[C@@H](C)O)C(C)C)[C@@H](C)O) [N-alpha-[(S)-4-Carboxy-4-(19-carboxynonadecanoylamino)butyryl]-[Ser1,Glu14,His17,His35]-pramlintide] | 0.171 nM | 0.225 nM
{C20 diacid-γGlu}-HCNTATCATQRLAEFLVHSSSNFGPILSSTNVGSHTY-NH2 (disulfide 2-7; SMILES CC[C@H](C)[C@H](NC(=O)[C@@H]1CCCN1C(=O)CNC(=O)[C@H](Cc1ccccc1)NC(=O)[C@H](CC(N)=O)NC(=O)[C@H](CO)NC(=O)[C@H](CO)NC(=O)[C@H](CO)NC(=O)[C@H](Cc1c[nH]cn1)NC(=O)[C@@H](NC(=O)[C@H](CC(C)C)NC(=O)[C@H](Cc1ccccc1)NC(=O)[C@H](CCC(=O)O)NC(=O)[C@H](C)NC(=O)[C@H](CC(C)C)NC(=O)[C@H](CCCNC(=N)N)NC(=O)[C@H](CCC(N)=O)NC(=O)[C@@H](NC(=O)[C@H](C)NC(=O)[C@@H]1CSSC[C@H](NC(=O)[C@H](Cc2c[nH]cn2)NC(=O)CC[C@H](NC(=O)CCCCCCCCCCCCCCCCCCC(=O)O)C(=O)O)C(=O)N[C@@H](CC(N)=O)C(=O)N[C@@H]([C@@H](C)O)C(=O)N[C@@H](C)C(=O)N[C@@H]([C@@H](C)O)C(=O)N1)[C@@H](C)O)C(C)C)C(=O)N[C@@H](CC(C)C)C(=O)N[C@@H](CO)C(=O)N[C@@H](CO)C(=O)N[C@H](C(=O)N[C@@H](CC(N)=O)C(=O)N[C@H](C(=O)NCC(=O)N[C@@H](CO)C(=O)N[C@@H](Cc1c[nH]cn1)C(=O)N[C@H](C(=O)N[C@@H](Cc1ccc(O)cc1)C(N)=O)[C@@H](C)O)C(C)C)[C@@H](C)O) | 0.349 nM | 0.921 nM
{C20 diacid-γGlu}-SCNTATCATQRLAEFLHHSSNNFGPILPPTNVGSNTP-NH2 (disulfide 2-7; SMILES CC[C@H](C)[C@H](NC(=O)[C@@H]1CCCN1C(=O)CNC(=O)[C@H](Cc1ccccc1)NC(=O)[C@H](CC(N)=O)NC(=O)[C@H](CC(N)=O)NC(=O)[C@H](CO)NC(=O)[C@H](CO)NC(=O)[C@H](Cc1c[nH]cn1)NC(=O)[C@H](Cc1c[nH]cn1)NC(=O)[C@H](CC(C)C)NC(=O)[C@H](Cc1ccccc1)NC(=O)[C@H](CCC(=O)O)NC(=O)[C@H](C)NC(=O)[C@H](CC(C)C)NC(=O)[C@H](CCCNC(=N)N)NC(=O)[C@H](CCC(N)=O)NC(=O)[C@@H](NC(=O)[C@H](C)NC(=O)[C@@H]1CSSC[C@H](NC(=O)[C@H](CO)NC(=O)CC[C@H](NC(=O)CCCCCCCCCCCCCCCCCCC(=O)O)C(=O)O)C(=O)N[C@@H](CC(N)=O)C(=O)N[C@@H]([C@@H](C)O)C(=O)N[C@@H](C)C(=O)N[C@@H]([C@@H](C)O)C(=O)N1)[C@@H](C)O)C(=O)N[C@@H](CC(C)C)C(=O)N1CCC[C@H]1C(=O)N1CCC[C@H]1C(=O)N[C@H](C(=O)N[C@@H](CC(N)=O)C(=O)N[C@H](C(=O)NCC(=O)N[C@@H](CO)C(=O)N[C@@H](CC(N)=O)C(=O)N[C@H](C(=O)N1CCC[C@H]1C(N)=O)[C@@H](C)O)C(C)C)[C@@H](C)O) [N-alpha-[(S)-4-Carboxy-4-(19-carboxynonadecanoylamino)butyryl]-[Ser1,Glu14,His17,Pro37]-pramlintide] | 0.0705 nM | 0.0625 nM

More lines, now with the values ahead:

CTa receptor human EC50 [1] | Amylin receptor human EC50 [2] | Binder
0.0725 nM | 0.0845 nM | {C20 diacid-γGlu}-HCNTATCATQRLAEFLVHSSNNFGPILPPTNVGSNTP-NH2 (disulfide 2-7; SMILES CC[C@H](C)[C@H](NC(=O)[C@@H]1CCCN1C(=O)CNC(=O)[C@H](Cc1ccccc1)NC(=O)[C@H](CC(N)=O)NC(=O)[C@H](CC(N)=O)NC(=O)[C@H](CO)NC(=O)[C@H](CO)NC(=O)[C@H](Cc1c[nH]cn1)NC(=O)[C@@H](NC(=O)[C@H](CC(C)C)NC(=O)[C@H](Cc1ccccc1)NC(=O)[C@H](CCC(=O)O)NC(=O)[C@H](C)NC(=O)[C@H](CC(C)C)NC(=O)[C@H](CCCNC(=N)N)NC(=O)[C@H](CCC(N)=O)NC(=O)[C@@H](NC(=O)[C@H](C)NC(=O)[C@@H]1CSSC[C@H](NC(=O)[C@H](Cc2c[nH]cn2)NC(=O)CC[C@H](NC(=O)CCCCCCCCCCCCCCCCCCC(=O)O)C(=O)O)C(=O)N[C@@H](CC(N)=O)C(=O)N[C@@H]([C@@H](C)O)C(=O)N[C@@H](C)C(=O)N[C@@H]([C@@H](C)O)C(=O)N1)[C@@H](C)O)C(C)C)C(=O)N[C@@H](CC(C)C)C(=O)N1CCC[C@H]1C(=O)N1CCC[C@H]1C(=O)N[C@H](C(=O)N[C@@H](CC(N)=O)C(=O)N[C@H](C(=O)NCC(=O)N[C@@H](CO)C(=O)N[C@@H](CC(N)=O)C(=O)N[C@H](C(=O)N1CCC[C@H]1C(N)=O)[C@@H](C)O)C(C)C)[C@@H](C)O) [N-alpha-[(S)-4-Carboxy-4-(19-carboxynonadecanoylamino)butyryl]-[His1,Glu14,Pro37]-pramlintide]
0.161 nM | 0.208 nM | {C20 diacid-γGlu}-GCNTATCATQRLAEFLHHSSNNFGPILPPTNVGSHTY-NH2 (disulfide 2-7; SMILES CC[C@H](C)[C@H](NC(=O)[C@@H]1CCCN1C(=O)CNC(=O)[C@H](Cc1ccccc1)NC(=O)[C@H](CC(N)=O)NC(=O)[C@H](CC(N)=O)NC(=O)[C@H](CO)NC(=O)[C@H](CO)NC(=O)[C@H](Cc1c[nH]cn1)NC(=O)[C@H](Cc1c[nH]cn1)NC(=O)[C@H](CC(C)C)NC(=O)[C@H](Cc1ccccc1)NC(=O)[C@H](CCC(=O)O)NC(=O)[C@H](C)NC(=O)[C@H](CC(C)C)NC(=O)[C@H](CCCNC(=N)N)NC(=O)[C@H](CCC(N)=O)NC(=O)[C@@H](NC(=O)[C@H](C)NC(=O)[C@@H]1CSSC[C@H](NC(=O)CNC(=O)CC[C@H](NC(=O)CCCCCCCCCCCCCCCCCCC(=O)O)C(=O)O)C(=O)N[C@@H](CC(N)=O)C(=O)N[C@@H]([C@@H](C)O)C(=O)N[C@@H](C)C(=O)N[C@@H]([C@@H](C)O)C(=O)N1)[C@@H](C)O)C(=O)N[C@@H](CC(C)C)C(=O)N1CCC[C@H]1C(=O)N1CCC[C@H]1C(=O)N[C@H](C(=O)N[C@@H](CC(N)=O)C(=O)N[C@H](C(=O)NCC(=O)N[C@@H](CO)C(=O)N[C@@H](Cc1c[nH]cn1)C(=O)N[C@H](C(=O)N[C@@H](Cc1ccc(O)cc1)C(N)=O)[C@@H](C)O)C(C)C)[C@@H](C)O) [N-alpha-[(S)-4-Carboxy-4-(19-carboxynonadecanoylamino)butyryl]-[Gly1,Glu14,His17,His35]-pramlintide]

From patent publication US20130005646A1 (Novo Nordisk, published 2013)
